Here are results for 3 molecules from paper PMC7890063, “Bioinformatics-aided identification, characterization and applications of mushroom linalool synthases” (Communications Biology, 2021).

In one series the target is T1, Sc.LNS (Streptomyces clavuligerus, UniProt D5SL78).
T1 construct: gene SCLAV_p1185; codon-optimised gene in pET-11a, expressed in E. coli with mevalonate pathway, not purified
T1 sequence (D5SL78 1-329): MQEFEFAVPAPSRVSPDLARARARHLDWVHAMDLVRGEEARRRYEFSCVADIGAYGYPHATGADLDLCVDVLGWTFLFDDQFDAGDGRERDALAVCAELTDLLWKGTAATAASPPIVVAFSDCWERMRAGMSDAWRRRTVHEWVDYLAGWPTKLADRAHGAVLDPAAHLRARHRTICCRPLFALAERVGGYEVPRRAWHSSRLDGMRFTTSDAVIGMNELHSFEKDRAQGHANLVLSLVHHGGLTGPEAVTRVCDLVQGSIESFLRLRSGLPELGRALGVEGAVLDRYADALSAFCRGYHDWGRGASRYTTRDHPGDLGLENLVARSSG
Briefly: product formation in E. coli, GC-MS. The format is cell-based. Conditions: E. coli with mevalonate pathway; product nerolidol.

For the next series, the system named is Ap.LS (Agrped1_689675). Briefly: PPi release, EnzChek pyrophosphate assay. It is filed as biochemical, Agrocybe pediades. Conditions: 37 °C, 1 h; enzyme 71.2% pure; product (R)-linalool; read-out: Monoterpene synthase. The text has this:
PPi release, EnzChek pyrophosphate assay on Ap.LS (Agrped1_689675)

Substrate in series [1]: CC(C)=CCC/C(C)=C/COP(=O)(O)OP(=O)(O)O
Briefly: PPi release, EnzChek pyrophosphate assay. The format is biochemical, Cyclocybe aegerita. As to conditions: 37 °C, 1 h, enzyme 16.3% pure, product (R)-linalool. From the text: (§1) PPi release, EnzChek pyrophosphate assay on Aa.LNS (AAE3_109435)

Substrate in series [2]: CC(C)=CCC/C(C)=C/CC/C(C)=C/CO[P@@](=O)(O)OP(=O)(O)O
As to the kind of experiment: PPi release, EnzChek pyrophosphate assay. It is filed as biochemical, Cyclocybe aegerita. Conditions: 37 °C, 1 h, enzyme 16.3% pure, product nerolidol.
Source text: as §1

The kcat is the maximal rate divided by the concentration of active sites. What is called kcat/Km is the second-order rate constant that governs catalysis at low substrate concentration.

In the case of `CC(C)=CCC/C(C)=C/CC/C(C)=C/COP(=O)(O)OP(=O)(O)O` [(E,E)-FPP], the “product formation in E. coli, GC-MS” value on Sc.LNS is “Sc.LNS produced a larger amount of nerolidol than linalool in E. coli”.
For `CC(C)=CCC/C(C)=C/COP(=O)(O)OP(=O)(O)O` [GPP], in the series with Ap.LS (Agrped1_689675), the Km turned out to be 3.8 ± 0.7 µM.

B1: Aa.LNS (AAE3_109435) (Cyclocybe aegerita) (protein)
chain: MHSSTQLFTHSPTKMQIILPDLLCSWGYKGFLNPHYEGAKAESNTWIRPLVVKLFDERGQKAFAKDYTGLLASMTYPHHNKEFLCVACDMMNLFFVYDEYTDITPPETAQRLAKIVVNAMRNPDEIAALGEDSIGTMTKQFWRRAMTLLPPNGCNSESCIQHFIDYTEEYLTAVTREACDRSSGSVHAVKDYLAMRRATSGAGLMVGLLEFGLDLPEEVMKHEVIQELSTGAIDMYCLLNDMHSYASELSSGQASHNVITVVMHERNLSLQEAFDWLASYAAGVVKGFKTNLNRVPSFSELEDHSLHGEGMLRDRIQRYIDGLGQAVRAEDDWAFETTRYHGQNGPQIKLTRMLTIRPQVKDNYAKQAPRVEAPERPMLLEVRS
As for B1, in series [1], the Km is 6.7 ± 4.6 µM, the kcat is 0.00833 ± 0.00167 s⁻¹ and the specificity constant (kcat/Km) came to 1670 M⁻¹ s⁻¹. Besides, in series [2], the Km was determined as 9.0 ± 2.3 µM, the kcat is 0.055 ± 0.005 s⁻¹ and the kcat/Km came to 6670 M⁻¹ s⁻¹.
